The target in the assay is T1, human IL-19 / human IL-20R beta Fc-fusion protein (Homo sapiens, UniProt Q9UHD0).
T1 sequence (Q9UHD0 25-177): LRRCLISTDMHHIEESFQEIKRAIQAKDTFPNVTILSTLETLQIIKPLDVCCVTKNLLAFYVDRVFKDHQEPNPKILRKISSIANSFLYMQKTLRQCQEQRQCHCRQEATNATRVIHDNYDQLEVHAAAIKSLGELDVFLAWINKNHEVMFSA
In words: BLI in vitro neutralization: IL-19 captured by antibody, then incubated with IL-20R beta Fc. As to conditions: block of IL-19 binding to soluble receptor. The text has this: Alternatively, a biophysical assay such as bio-layer interferometry (BLI) may be used for assessing neutralization of IL-19 by antibodies of the present invention. Binding between a ligand immobilized on the biosensor tip surface and an analyte in solution produces an increase in optical thickness at the biosensor tip, which results in a wavelength shift (expressed in nm). According to such assay, the IL-19 receptor (i.e., […]) is expressed in a membrane-free manner (such as with an Fc-fusion e.g. IL20Rbeta Fc chimera protein from R&D Systems catalog 1788-IR-050). […] The immobilized antibodies are then incubated with recombinant human IL-19 protein diluted to 100 nM using HBS-EP+ running buffer (GE Healthcare, 10 mM Hepes pH7.4+150 mM NaCl+3 mM EDTA+0.05% surfactant P20) for 240-300 secs. The human IL-19, after binding to the anti-IL-19 antibody, is assessed by incubation with human IL-20R beta Fc-fusion protein for 240-300 secs. The ability of the antibody to block or neutralize binding of the IL-19 ligand to the soluble receptor is observed as a minimal (<0.025 nm) increase in the wavelength during this step of the assay.

B1: M_2: murine-derived IL-19 antibody; LC SEQ ID NO: 10, HC SEQ ID NO: 14 (antibody)
heavy: LVQLQQSDAELVKPGASLKISCKVSGYTFTDHALHWMKQRPEQGLEWIGYIYPRDGSTKYNEKFKGKATLTADRSSSTAYMELNSLTSEDSAVYFCARGWDFAMDYWGQGTSVTVSSAKTTPPSVYPLAPGSAAQTNSMVTLGCLVKGYFPEPVTVTWNSGSLSSGVHTFPAVLQSDLYTLSSSVTVPSSTWPSETVTCNVAHPASSTKVDKKIVPRDCGCKPCICTVPEVSSVFIFPPKPKDVLTITLTPKVTCVVVDISKDDPEVQFSWFVDDVEVHTAQTQPREEQFNSTFRSVSELPIMHQDWLNGKEFKCRVNSAAFPAPIEKTISKTKGRPKAPQVYTIPPPKEQMAKDKVSLTCMITDFFPEDITVEWQWNGQPAENYKNTQPIMDTDGSYFVYSKLNVQKSNWEAGNTFTCSVLHEGLHNHHTEKSLSHSPGK
light: DIVLTQSPESLAVSLGQRATISCRASESVDNYGISFIHWYQQKPGQPPKLLIYRASNLKSGIPARFSGRGSRTDFTLTINPVETDDVATYYCQQINKDPLTFGAGTKLELKRADAAPTVSIFPPSSEQLTSGGASVVCFLNNFYPKDINVKWKIDGSERQNGVLNSWTDQDSKDSTYSMSSTLTLTKDEYERHNSYTCEATHKTSTSPIVKSFNRNEC
Take B1: the Neutralization result is “No”.

B2: M_3: murine-derived IL-19 antibody; LC SEQ ID NO: 18, HC SEQ ID NO: 22 (antibody)
heavy: QIQLVQSGPELKKPGETVKISCKASGYTFTTYGMSWVKQAPGKGLKWMVWINTYSGVPTYVDDFKGRFAFSLETSASTAYLQINNLKNEDTATYFCARRDEGFAYWGQGTLVTVSAAKTTPPSVYPLAPGSAAQTNSMVTLGCLVKGYFPEPVTVTWNSGSLSSGVHTFPAVLQSDLYTLSSSVTVPSSTWPSETVTCNVAHPASSTKVDKKIVPRDCGCKPCICTVPEVSSVFIFPPKPKDVLTITLTPKVTCVVVDISKDDPEVQFSWFVDDVEVHTAQTQPREEQFNSTFRSVSELPIMHQDWLNGKEFKCRVNSAAFPAPIEKTISKTKGRPKAPQVYTIPPPKEQMAKDKVSLTCMITDFFPEDITVEWQWNGQPAENYKNTQPIMDTDGSYFVYSKLNVQKSNWEAGNTFTCSVLHEGLHNHHTEKSLSHSPGK
light: DIKMTQSPSSMYASLGERVTITCKASQDINSYLSWFQQKPGKSPKTLIYRANRLVDGVPSRFSGSGSGQDYSLTISSLEYEDMGIYFCLQYDDFPYTFGGGTKLEIKRADAAPTVSIFPPSSEQLTSGGASVVCFLNNFYPKDINVKWKIDGSERQNGVLNSWTDQDSKDSTYSMSSTLTLTKDEYERHNSYTCEATHKTSTSPIVKSFNRNEC
On to B2, for which the Neutralization result is “No”.

The values are drawn from patent US12459997B2, “Compounds and methods targeting interleukin-19” (Eli Lilly and Company, priority 2018, dated 2025).
